Experimental findings from patent publication US20040002075A1, “Heat-resistant cysteine synthase” (priority 2001, published 2004) are described below.

The nature of series [1]: Optimal temperature, cysteine synthase activity assaying method (2). Type of series: biochemical. To be noted: 4 minutes reaction, FIG. 2. How it is done:
The optimal temperature was determined by the following assaying method (2) for cysteine synthase activity. Assaying Method of Cysteine Synthase Activity (2) Purified enzyme was added to 50 mM potassium phosphate buffer (pH 7.5 or 7.0) containing 20 mM O-acetylserine and 2 mM sodium sulfide as substrates, and 0.2 mM pyridoxal 5′-phosphate so as to establish an enzyme concentration of 0.8 μg/mL, the reaction was brought about for 4 minutes, and the amount of cysteine synthesized was determined by the ninhydrin method to assay the enzyme activity.

Series [2] can be described thus: Heat resistance, residual activity after incubation, assaying method (1). In kind it is physicochemical. To be noted: for residual activity: 0.3 mg/mL enzyme in 50 mM potassium phosphate buffer (pH 6.7), FIG. 3. As for the experimental part: The optimal pH was determined by the following assaying method (1) for cysteine synthase activity. Assaying Method of Cysteine Synthase Activity (1) Four enzyme solution samples were prepared by adding cysteine synthase to 50 mM potassium phosphate buffer (pH 6.7) containing 1 mM EDTA and 0.2 mM pyridoxal 5′-phosphate so as to obtain an enzyme concentration of 0.3 mg/mL. The samples were incubated for 6 hours at 4° C., 80° C., and 100° C., respectively, to assay residual activity.

B1: cysteine synthase: Heat-resistant cysteine synthase (O-acetylserine sulfhydrylase) of hyperthermophilic archaea Aeropyrum pernix K1, SEQ ID NO: 2, produced recombinantly in E. coli (protein)
chain: VALADISGYLDVLDSVRGFSYLENAREVLRSGEARCLGNPRSEPEYVKALYVIGASRIPVGDGCSHTLEELGVFDISVPGEMVFPSPLDFFERGKPTPLVRSRLQLPNGVRVWLKLEWYNPFSLSVKDRPAVEIISRLSRRVEKGSLVADATSSNFGVALSAVARLYGYRARVYLPGAAEEFGKLLPRLLGAQVIVDPEAPSTVHLLPRVMKDSKNEGFVHVNQFYNDANFEAHMRGTAREIFVQSRRGGLALRGVAGSLGTSGHMSAAAFYLQSVDPSIRAVLVQPAQGDSIPGIRRVETGMLWINMLDISYTLAEVTLEEAMEAVVEVARSDGLVIGPSGGAAVKALAKKAAEGDLEPGDYVVVVPDTGFKYLSLVQNALEGAGDSV
modifications: Aeropyrum pernix K1
As to B1, the optimal temperature entry in series [1] (50 mM potassium phosphate buffer pH 7.0) is “about 60 °C”; in series [1] (50 mM potassium phosphate buffer pH 7.5) it was “about 50 °C”. Further, the figures for the residual activity result in series [2] (after 6 hours of incubation at 80° C.) and in series [2] (after 6 hours of incubation at 100° C.) were “about 97%” and “about 85%”, respectively. For the same molecule, the “activity of the enzyme after heat-treatment” value in series [2] (heat-treatment at 80° C. for 6 hours) was “substantially unimpaired”.
